Source: PMC13216289 (NPJ Vaccines, 2026)
Substitutions are numbered along the chain they refer to.

B1: Ab17 (antibody, V domains shown)
VH: QVQLRESGPSSLKPSQTLSLTCAVSGFSLSTYAVGWVRQAPGKALEWVGDITSSGDTFYNPALKSRFSITKDNSKNQVSLSVGSVTPEDTATFYCTRLTCGDDCSTAWHNFDAWGQGLLVTVSS
VL: SYELTQPTSVSVALGQTAKITCSGDLLDVQYTQWYQQKPGQGPVRVIYKDSERPSGISDRFSGSSSGKTATLIISGAQTEDEADYYCQSTDSSQYGIFGRGTTLTVL
B2: Ab49 (antibody, V domains shown)
VH: QVQLRESGPSLVKPSQTLSLTCTVSGFSLTNYAVGWVRQAPGKAIQSLSIISTTGDTYYNPALKSRLSITKDNSKSQVSLSVSSVAPEDTATYYCVKFCGNADSAGHGWGCDYGDNENWGQGLLVTVSS
VL: B1 VL with V29E, I73T, T90F, D91Y, Q94T, Y95D, G96P, I97V, R100S
B3: Ab34 (antibody, V domains shown)
VH: QVQLRESGPSLVKPSQTLSLTCTVSGFSLTDVHVGWVRQTPGKALEWVGVICNRGAIGYNPALESRLSITEDNSKSQVSLSLSSVTTADTATYYCASSCRTEGDVGGDCDSDHFFCAWGQGLLVTVSS
VL: SYELTQPTSVSVALGQTAKITCSGDLLDRQYAQWYQQKPGQGPVRVIYKDSERPSGISDRFSGSSSGKTATLTVSGAQTEDEADYYCHSADSSHYPVFGSGSTLTVL

Columns and labels:
Conditions in all cases: both partners purified
[1] = molecular target: VP1 subunit of reduced O1M VLPs (Foot-and-mouth disease virus …, UniProt Q6PMW3); experiment: far-Western, overlay or dot blot
[2] = molecular target: VP1 C-terminal peptide, residues 199-213 of O/UKG/34/2001 (Foot-and-mouth disease virus …, UniProt Q80B19); experiment: ELISA
[3] = molecular target: VP1 C-terminal peptide, residues 196-210 of O/UKG/34/2001 (Foot-and-mouth disease virus …, UniProt Q80B19); experiment: ELISA

| Binder | binding result [1] | binding result [2] | binding result [3] |
| --- | --- | --- | --- |
| B1 | binds | binds | binds |
| B2 | binds | binds | binds |
| B3 | binds | – | – |
